{"source": "patent US20220125824A1", "molecular_target": "mCherry-MazF (E. coli MazF ribonuclease fused to the C terminus of mCherry) (E. coli) (UniProt P0AE70)", "sequence (P0AE70 whole entry, the tested form may be a part)": "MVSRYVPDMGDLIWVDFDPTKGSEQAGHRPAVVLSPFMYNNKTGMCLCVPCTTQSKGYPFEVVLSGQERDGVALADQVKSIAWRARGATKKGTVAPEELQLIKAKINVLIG", "assay": "cell-based or functional assay"}
{"substance": "E. coli antitoxin MazE (from UniProt P0AE72 1-82)", "values": [{"measurement": "mortality (MTT assay) of lung cancer cells co-infected with MazF and MazE viruses at a 1:0.5 MOI ratio", "result": 36, "unit": "%"}, {"measurement": "yield of MazF-encoding adenovirus in HEK293 packaging cells that constitutively express MazE, compared with parental HEK293 cells (orders of magnitude)", "result": 2}]}
